Biological target: EphB2-GFP (UniProt P29323)
UniProt P29323, sequence (P29323 19-1055): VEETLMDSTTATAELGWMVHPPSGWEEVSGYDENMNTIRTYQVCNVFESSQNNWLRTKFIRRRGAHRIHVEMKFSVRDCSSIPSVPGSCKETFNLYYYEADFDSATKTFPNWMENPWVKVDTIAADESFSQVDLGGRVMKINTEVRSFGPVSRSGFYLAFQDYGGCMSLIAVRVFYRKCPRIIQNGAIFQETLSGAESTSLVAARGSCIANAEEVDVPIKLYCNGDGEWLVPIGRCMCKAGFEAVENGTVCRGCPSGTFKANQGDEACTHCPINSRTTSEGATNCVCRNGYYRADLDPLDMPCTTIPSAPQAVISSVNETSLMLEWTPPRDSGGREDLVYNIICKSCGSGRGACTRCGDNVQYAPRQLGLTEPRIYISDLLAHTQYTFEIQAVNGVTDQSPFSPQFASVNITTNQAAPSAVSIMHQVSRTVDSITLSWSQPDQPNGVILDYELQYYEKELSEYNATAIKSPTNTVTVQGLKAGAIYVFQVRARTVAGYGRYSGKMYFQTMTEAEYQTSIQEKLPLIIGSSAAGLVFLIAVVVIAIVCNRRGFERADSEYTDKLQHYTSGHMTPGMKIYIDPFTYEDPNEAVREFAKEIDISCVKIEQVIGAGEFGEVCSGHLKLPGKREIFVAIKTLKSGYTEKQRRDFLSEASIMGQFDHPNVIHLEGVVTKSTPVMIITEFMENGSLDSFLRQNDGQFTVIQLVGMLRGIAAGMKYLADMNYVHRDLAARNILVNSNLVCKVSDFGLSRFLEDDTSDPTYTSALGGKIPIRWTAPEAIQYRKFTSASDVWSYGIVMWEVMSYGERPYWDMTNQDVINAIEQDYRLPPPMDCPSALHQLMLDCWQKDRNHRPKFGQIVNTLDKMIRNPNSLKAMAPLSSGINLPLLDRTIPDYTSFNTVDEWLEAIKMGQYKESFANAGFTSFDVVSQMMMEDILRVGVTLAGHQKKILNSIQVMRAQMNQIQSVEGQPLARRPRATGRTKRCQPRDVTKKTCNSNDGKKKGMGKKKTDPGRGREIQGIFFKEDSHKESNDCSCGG

decrease in HeLa cell area (collapse) of Control shRNA EphB2-OE cells after 15 min with 1 ug/mL pre-clustered eB2 against Fc: 50%
Substance: ephrin-B2-Fc (from UniProt P52799 28-229) (Fc fusion)
